{"source": "patent US20210085784A1", "about": "(PROGASTRINE ET CANCERS S R L, published 2021)", "data": [{"biological_target": "T1, human progastrin (human, UniProt P01350 22-101)", "T1 construct": "also called hPG; PG", "T1 sequence": "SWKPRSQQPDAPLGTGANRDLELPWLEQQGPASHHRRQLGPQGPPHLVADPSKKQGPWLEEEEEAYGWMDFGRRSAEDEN", "experiment": "epitope mapping, method not described", "values": [{"binder": "mAb13 (antibody, V domains shown, Murine monoclonal antibody from a hybridoma, raised against hPG 55-80; also called 2C6C3C7) VH: EVQLVESGGGLVQPGGSLKLSCAASGFIFSSYGMSWVRQSPDRRLELVASINTFGDRTYYPDSVKGRFTISRDNAKNTLYLQMTSLKSEDTAIYYCARGTGTYWGQGTTLTVSS VL: not shown", "binding result": "binds"}, {"binder": "mAb3 (antibody, V domains shown, Murine monoclonal antibody from a hybridoma, raised against hPG 1-14; also called 6B5B11C10) VH: EVQLQQSGTVLARPGASVKMSCKASGYIFTSYWVHWVKQRPGQGLEWIGGFYPGNSDSRYNQKFKGKATLTAVTSASTAYMDLSSLTNEDSAVYFCTRRDSPQYWGQGTTLTVSS VL: DVLMTQTPLSLPVSLGDQASISCRSSQSIVHSNGNTYLEWYLQKPGQSPKLLIYKVSNRFSGVPDRFSGSGSGTDFTLKISRLEAEDLGVYYCFQGSHVPFTFGGGTKLEIK", "binding result": "binds"}, {"binder": "mAb19 (antibody, V domains shown, Murine monoclonal antibody from a hybridoma, raised against hPG 1-14; also called 1B3B4F11) VH: DVQLQESGPGLVKPSQSLSLTCTVTGYSITSDYAWNWIRQFPGNKLEWMGYISFSGYTSYNPSLKSRISVTRDTSRNQFFLQLTSVTTEDTATYYCAREVNYGDSYHFDYWGQGTIVTVSS VL: QLALTQSSSASFSLGASAKLTCTLSSQHRTYTIEWYQQQSLKPPKYVMEVKKDGSHSTGHGIPDRFSGSSSGADRYLSISNIQPEDEAIYICGVGDAIKGQSVFVFGGGTKVTVL", "binding result": "binds"}, {"binder": "mAb4 (antibody, V domains shown, Murine monoclonal antibody from a hybridoma, raised against hPG 1-14; also called 20D2C3G2) VH: QVQLQQSGAELMKPGASVKISCKATGYTFSSSWIEWLKQRPGHGLEWIGEFLPGSGSTDYNEKFKGKATFTADTSSDTAYMLLSSLTSEDSAVYYCATDGNYDWFAYWGQGTLVTVSA VL: DLVMTQTPLSLPVSLGDQASISCRSSQSLVHSSGVTYLHWYLQKPGQSPKLLIYKVSNRFSGVPDRFSGSGSGTDFTLKISRVEAEDLGVYFCSQSTHVPPTFGSGTKLEIK", "binding result": "binds"}, {"binder": "mAb16 (antibody, V domains shown, Murine monoclonal antibody from a hybridoma, raised against hPG 1-14; also called 1E9D9B6) VH: QVQLQQSGAELVKPGASVKLSCKASGYTFTSYYMYWVKQRPGQGLEWIGEINPSNGGTNFNEKFKSKATLTVDKSSSTAYMQLSSLTSEDSAVYYCTRGGYYPFDYWGQGTTLTVSS VL: not shown", "binding result": "binds"}]}]}
